Target: photosystem I from Cyanobacterium aponinum 0216 (one monomer of the trimer, 11 protein subunits) (Cyanobacterium aponinum 0216 (endogenous)) (UniProt K9Z0B2)
Assay: cryo-EM structure; single-particle cryo-EM of the purified PSI trimer, C3 symmetry imposed; 30 mM Tricine–NaOH pH 8, 150 mM NaCl, 0.02% DDM; three monomers in the trimer

- stoichiometry N: 3
Substance: photosystem I from Cyanobacterium aponinum 0216 (one monomer of the trimer, 11 protein subunits) (from UniProt K9Z0B2 1-750; K9Z2J7 1-738; K9Z1N0 1-81; K9Z9J3 1-39; K9Z7Y0 1-163) (complex)

From PMC8428864
